Reference: patent US20160168266A1 (SBI BIOTECH, published 2016)

T1: human phospholipase D4 (PLD4) protein (human, UniProt Q96BZ4 1-506)
T1 construct: The hybridoma FACS screening used CAL-1 cells; also called human PLD4
T1 sequence: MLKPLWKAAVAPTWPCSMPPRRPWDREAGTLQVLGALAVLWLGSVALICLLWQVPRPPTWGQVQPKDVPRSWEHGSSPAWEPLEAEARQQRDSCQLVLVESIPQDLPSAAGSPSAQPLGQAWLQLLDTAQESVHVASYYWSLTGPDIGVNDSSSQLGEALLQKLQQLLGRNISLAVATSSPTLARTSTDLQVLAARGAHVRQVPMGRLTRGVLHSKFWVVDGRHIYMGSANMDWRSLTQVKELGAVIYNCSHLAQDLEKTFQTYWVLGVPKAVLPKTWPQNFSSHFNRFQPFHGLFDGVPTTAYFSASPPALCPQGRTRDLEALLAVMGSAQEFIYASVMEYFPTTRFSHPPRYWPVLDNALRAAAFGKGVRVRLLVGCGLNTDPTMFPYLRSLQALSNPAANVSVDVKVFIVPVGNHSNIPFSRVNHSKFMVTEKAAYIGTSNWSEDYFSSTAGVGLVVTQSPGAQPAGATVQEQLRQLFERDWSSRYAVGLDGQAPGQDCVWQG


The binders below were run against T1, human phospholipase D4 (PLD4) protein (assay: FACS screening of hybridoma culture supernatant (CAL-1 cells)).

Binder | binding result
anti-PLD4 mouse 10C3 antibody (antibody, mouse IgG2a, V domains shown, Mouse IgG2a, kappa monoclonal antibody) VH: EVQLVESGGDLVRPGGSLKLSCAASGFSFSSYGMSWFRQTPDKRLEWVATISSGGSYIYYPESVKGRFTISRDNARNILYLQMSSLKSEDTAMYYCVRLYGGRRGYGLDYWGQGTSVTVSS VL: EIVMTQAAFSNPVTLGTSASISCRSSKSLLHSDGITYLYWYLQKPGQSPQLLIYQMSNLASGVPDRFSSSGSGTDFTLRISRVEAEDVGVYYCAQNLELYTFGGGTKLEIKR | binds
anti-PLD4 mouse 11D10 antibody (antibody, mouse IgG2b, V domains shown, Mouse IgG2b, kappa monoclonal antibody with the same CDRs as 10C3) VH: EVQLVESGGDLVRPGGSLKLSCAASGFSFSSYGMSWFRQTPDKRLEWVATISSGGSYIYYPESVKGRFTISRDNARNILYLQMSSLKSEDTAMYYCVRLYGGRRGYGLDYWGQGTSVTVSS VL: EIVMTQAAFSNPVTLGTSASISCRSSKSLLHSDGITYLYWYLQKPGQSPQLLIYQMSNLASGVPDRFSSSGSGTDFTLRISRVEAEDVGVYYCAQNLELYTFGGGTKLEIKR | binds
anti-PLD4 mouse 8C11 antibody (antibody, mouse IgG2b, V domains shown, Mouse IgG2b, kappa monoclonal antibody) VH: QVQLQQSGAELVKPGASVKLSCKASGYTFTSYYLYWVRQRPGQGLEWIGLINPTNSDTIFNEKFKSKATLTVDKSSSTAYMQLSSLTSEDSAVYYCTREGGYGYGPFAYWGQGTLVTVSA VL: DVVMTQTPLSLPVSLGDQASISCTSSQTLVHSNGNTYLHWYLQKPGQSPKLLIYKVSNRFSGVPDRFSGSGSGTDFTLKISRVEAEDLGVYFCSHSTHVPFTFGSGTKLEIKR | binds

The binders below were run against T1, human phospholipase D4 (PLD4) protein (assay: cell-based or functional assay).

Binder | PLD4+ activated B cells after culture of PBMC with CpG2006 and the chimeric antibody, with control Ig treatment taken as 100%
chimeric 3B4 antibody (antibody, V domains shown) VH: EVQLQQSGTVLSRPGASVTMSCKASGDSFTTYWMHWVKQRPGQGLEWIGAIYPGNSETSYNQKFKGKAKLTAVTSASTAYMEFTSLTNEDSAVYYCTGGYSDFDYWGQGTTLTVSS VL: DILMTQSPSSMSVSLGDTVSITCHASQGIRSNIGWLQQKPGKSFKGLIFHGTNLEDGVPSRFSGRGSGADYSLTINSLESEDFADYYCVQYVQFPPTFGSGTKLEIRR | 70.2%
chimeric 13D4 antibody (antibody, V domains shown) VH: DVQLQESGPGLVKPSQSLSLTCSVTGYSITSHYYWTWIRQFPGNKLEWMGYISYDGSNNYNPSLKNRISITRDTSKNQFFLKLNSVTTEDTATYNCAREGPLYYGNPYWYFDVWGAGTTVTVSS VL: DIQMTQTTSSLSASLGDRVTISCRASQDIDNYLNWYQQKPDGTVKLLIYYTSRLHSGVPSRFSGSGSGTDYSLTISNLEQEDVATYFCQQFNTLPRTFGGGTKLEIKR | 56%
chimeric 13H11 antibody (antibody, V domains shown) VH: DVQLQESGPGLVKPSQSLSLTCSVTGYSISSHYYWSWIRQFPGNRLEWMGYISYDGSNNYNPSLKNRISITRDTSKNQFFLKLNSVTTEDTATYNCAREGPLYYGNPYWYFDVWGAGTTVTVSS VL: DIQMTQTTSSLSASLGGSVTISCRASQDIDNYLNWYQQKPDGTVKLLIYYTSRLHSGVPSRFSGSGSGTDYSLTISNLEQEDIATYFCQQFNTLPRTFGGGTKLEIKR | 55.3%
anti-PLD4 chimeric 11G9.6 antibody (antibody, human IgG1, kappa, V domains shown) VH: QVQLQQPGAELVKPGTSVKMSCKASGYTFTSYWMHWVKQRPGQGLEWIGDIYPGSDSTNYNEKFKSKATLTVDTSSSTAYMQLSSLTSEDSAVYYCARGGWLDAMDYWGQGTSVTVSS VL: DIQMTQTTSSLSASLGDRVTISCRASQDISNYLNWYQQKPDGTVKLLIYYTSRLHSGVPSRFSGSGSGTDYSLTISNLEQEDIATYFCQQGNTLPWTFGGGTKLEIKR | 66.4%
chimeric 5B7 antibody (antibody, V domains shown) VH: EVQLQQSGPELVKPGASVKISCKASGYTFTDYNLHWVKQSHGKSLEWIGYIYPYNGNTGYNQKFKRKATLTVDNSSGTVYMELRSLTSEDSAVYYCARGGIYDDYYDYAIDYWGQGTSVTVSS VL: DIQMTQSPASLSVSVGETVAITCRASENIYSHIAWYQQKEGKSPQRLVYGATNLAHGVPSRFSGSGSGTQYSLKINSLQSEDFGSYYCQHFWGTPWTFGGGTKLEIKR | 25.8%
